According to patent US20230399384A1 (University of Texas, published 2023):
Where two headings read alike, the source gives them in different places.

B1: CoV2-29 (antibody, V domains shown)
VH: QVQLVESGGGLVQPGGSLRLSCAASGFTFSSYWMSWVRQAPGKGLEWVANIKQDGSEKYYVDSVKGRFTISRDNAKNSLYLQMNSLRAEDTAVYYCARMADDDFWRDLPGFYMDVWGKGTTVTVSS
VL: QAVVTQPASVSGSPGQSITISCTGTSSDVGGYNYVSWYQQHPGKAPKLMIYDVSNRPSGVSNRFSGSKSGNTASLTISGLQAEDEADYYCSSYTSSSTLVFGGGTKVTVL
B2: CoV2-01 (antibody, V domains shown)
VH: QVLLVQSGAEMKKPGASVKVSCKTSGYTFTNSYIHWVRQAPGQGLEWMGWINPISGGTNYAQKFQGRVTMTRDTSINTAYMELSRLRSDDTAVYYCARDRGDYDYGWGTSPFYFDYWGQGTLVTVSS
VL: DVQMTQSPSSLSASVGDRVTITCRASQSISRYLNWYQQKPGKAPKLLIYAASSLQSGVPSRFSGSGSGADFTLTISSLQPEDFATYYCQQSFSPPITFGQGTRLEIK
B3: CoV2-11 (antibody, V domains shown)
VH: QVELVESGGGLVQPGRSLRLSCEASGFSFDNYAMHWVRQTPGKGLEWVSGITGNSGTIGYADSVKGRFTISRDNAKNSLYLQMNRLRAEDTALYYCAKDTDYDSSGSYFDYWGQGTLVTVSS
VL: QPVLTQPPSVAVAPGQTARITCGGKNIGRESVHWYQQKPDQAPVLVIYSDGDRPSGTSERFSGSRSGNAATLTISRVEAGDEADYFCQVWDPDTDHYVFGTGTELTVL
B4: CoV2-32 (antibody, V domains shown)
VH: EVQLVESGGGLVQPGRSLRLSCAAPRFTFDDYAIHWVRQVPGKGLEWVSGSSWNSGTIGYAPSVKGRFTISRDNAKNSLFLQMNSLRVEDTALYYCAILPGDYNRVADVFDIWGQGTMVIVSS
VL: QAVVTQPPSVSGAPGQRVTISCTGSSSNIGAGYDVHWYQQLPGTAPKLLIYGNNNRPSGVPDRFSGSKSGTSASLAITGLQVEDEADYYCQSYDSSLSGYVFGTGTKVTVL
B5: CoV2-18 (antibody, V domains shown)
VH: QVQLVQSGAEVKKPGSSVKVSCKASGGTFSNYGISWVRQAPGQGLEWMGGIIPIFGTANYAQKFQGRVTITADKSTRTAYMELSSLRFEDTAVYYCARDRDDALTGLGLGGGFDIWGQGTMVTVSS
VL: QAVVTQPPSASGTPGQRVTISCSGSTSNIGTNTANWYQHLPGTAPKLLIYGNDRRPSGVPDRFSGSKSVTSASLAISGLQSEDEADYYCAAWDERLNGYVFGTGTKLTVL
B6: CoV2-17 (antibody, V domains shown)
VH: QVELVESGGGLVKPGGSLRLSCAASGFTFSSYSMNWVRQAPGKGLEWVSSISSSSSYIYYADSVKGRFTISRDNAKNSLYLQMNSLRAEDTAVYYCARGNVDIVATGEVDAFDIWGQGTMVSVSS
VL: QAVVTQPPSASGTLGQRVTISCSGSSSTIGSNYVYWYQQLPGTAPKLLIYRNNQRPSGVPDRFSGSKSGTSASLAISGLRSEDEADYYCAAWDDSLSGYVFGTGTQLTVL
B7: CoV2-35 (antibody, V domains shown)
VH: QVQLHQWGAGLLKPSETLSRTCAVYGGSFSGYSWTWIRQAPGKGLEWIGEINHGGSTKYNPSLESRVTISVDTSKKQFSLELRSVTAADTAVYYCARGYDTNWYGDGYNWFDPWGQGTLVSVSS
VL: NFMLTQPASVSVAPGKTASITCGGDNIGTKSVHWYRQKPGQAPVLVIYYDSDRPSGIPERFSGSNSGNTATLTISRVEAGDEADYYCQVGDSSSHVVFGGGTKVTVL
B8: CoV2-33 (antibody, V domains shown)
VH: QVQLVESGGGLVQPGRSLRLSCAASRFTFDDHAMHWVRQAPGKGLEWVSGISWNGGIIGYADSVKGRFTISRDNAKNSLYLQMNSLRAEDTALYYCAKGMGFGESNYYAMDVWGQGTMVTVSS
VL: QSALTQPASVSGSPGQSITISCTGTSSDVGGYNYVSWYQQHPGKAPKLIIYDVSNRPSGVSNRFSGSKSGNTASLTISGLQAEDEAYYYCSSYTSISNLVVFGGGTKVTVL
B9: CoV2-20 (antibody, V domains shown)
VH: QVQLVESGGDLVQPGRSLRLSCAASGFIFDDYAMHWVRQVPGKGPEWVSGVNRDSTYVGQADSVKGRFTISRDNAKKALFLQMDSLRVEDTALYYCVRGMTRVATDAFDFWGQGTMVTVSS
VL: AIQMTQSPSSLSASVGDRVTITCRASQSINGYLNWYQQKPGKAPKLLIYSASRLQSGVPSRFSGSGSGADYTLTISNLQVEDFATYYCQQSYSTPPVTFGQGTRLEIK

Columns and labels:
[1] = target: T1, sCoV2-RBD (Fc-tagged RBD of SARS-CoV-2 S protein) (SARS-CoV-2; human, UniProt P0DTC2 319-541); assay: BLI (Octet) blocking of ACE2 binding to captured sCoV2-RBD
[2] = target: T1, sCoV2-RBD (Fc-tagged RBD of SARS-CoV-2 …)
[3] = target: T2, S protein of SARS-CoV (SARS-CoV, UniProt P59594 14-1195); assay: ELISA, purified IgG1 on coated S protein
[4] = target: T1, sCoV2-RBD (Fc-tagged RBD of SARS-CoV-2 …); assay: ELISA titration on coated sCoV2-RBD
[5] = target: SARS-CoV-2 S protein on live SARS-CoV-2-mNG reporter virus (SARS-CoV-2, UniProt P0DTC2 14-1273); assay: cell-based or functional assay
[6] = target: T3, sCoV-RBD (Fc-tagged RBD of SARS-CoV S protein) (SARS-CoV; human, UniProt P59594 306-527); assay: ELISA, purified IgG1 on coated RBD protein
[7] = target: T4, SARS-CoV-2 RBD protein (Sino Biological, Cat: 40592-V08B) (SARS-CoV-2, UniProt P0DTC2 319-541); assay: BLI (Octet), mAb on Protein A sensor
[8] = target: T3, sCoV-RBD (Fc-tagged RBD of SARS-CoV S …); assay: phage ELISA, scFv on phage
[9] = target: T4, SARS-CoV-2 RBD protein (Sino …)
[10] = target: T1, sCoV2-RBD (Fc-tagged RBD of SARS-CoV-2 …); assay: ELISA titration on coated sCoV2-RBD; remark: listed apart in the source
[11] = target: T4, SARS-CoV-2 RBD protein (Sino …); remark: listed apart in the source
[12] = target: T2, S protein of SARS-CoV; assay: BLI (Octet), CoV2-20 against spike of SARS-CoV
[13] = target: T3, sCoV-RBD (Fc-tagged RBD of SARS-CoV S …); assay: BLI (Octet) blocking of ACE2 binding to sCoV-RBD
[14] = target: T3, sCoV-RBD (Fc-tagged RBD of SARS-CoV S …); assay: ELISA titration on coated sCoV-RBD
[15] = target: T1, sCoV2-RBD (Fc-tagged RBD of SARS-CoV-2 …); assay: ELISA titration on coated sCoV2-RBD; remark: listed apart in the source

| Binder | IC50 [1] | EC50 [2] | binding result [3] | EC50 [4] | NC50 (neutralisation of reporter SARS-CoV-2, Vero E6 cells) [5] | binding result [6] | Kd [7] | koff [7] | kon [7] | binding result [8] | Kd [9] | further results |
| --- | --- | --- | --- | --- | --- | --- | --- | --- | --- | --- | --- | --- |
| B1 | 2.25 µg/mL | 4.04 nM | no binding (tested: one concentration, not printed) | 4.05 nM | 1.13 µg/mL | no binding (tested: one concentration, not printed) |  |  |  |  |  |  |
| B2 | 9.17 µg/mL | 0.83 nM | no binding (tested: one concentration, not printed) | 0.83 nM | 5.2 µg/mL |  | 10.8 nM | 0.000574 s⁻¹ | 53300 M⁻¹ s⁻¹ | no binding | 10.8 nM |  |
| B3 | 2.97 µg/mL |  |  | 0.6 nM |  |  | 4.97 nM | 0.000306 s⁻¹ | 61600 M⁻¹ s⁻¹ |  |  | EC50 [10]: 0.59 nM |
| B4 | 10.4 µg/mL |  | no binding (tested: one concentration, not printed) | 12.6 nM |  | no binding (tested: one concentration, not printed) | 1730 nM | 0.00158 s⁻¹ | 915 M⁻¹ s⁻¹ |  |  |  |
| B5 | 6.03 µg/mL | 2.41 nM | no binding (tested: one concentration, not printed) | 2.41 nM | 1.93 µg/mL |  |  |  |  | no binding | 11.4 nM | Kd [11]: 11.4 nM; koff [11]: 0.000467 s⁻¹; kon [11]: 41200 M⁻¹ s⁻¹ |
| B6 | 4.28 µg/mL | 2.31 nM | no binding (tested: one concentration, not printed) | 2.24 nM | 2.49 µg/mL |  | 53.4 nM | 0.00101 s⁻¹ | 18900 M⁻¹ s⁻¹ | no binding | 1.73 nM | Kd [11]: 1.73 nM; koff [11]: 5.78e-05 s⁻¹; kon [11]: 33300 M⁻¹ s⁻¹ |
| B7 |  |  | no binding (tested: one concentration, not printed) | 40 nM |  | no binding (tested: one concentration, not printed) |  |  |  |  |  |  |
| B8 | 5.47 µg/mL |  | no binding (tested: one concentration, not printed) | 10.8 nM |  | no binding (tested: one concentration, not printed) | 168 nM | 0.00137 s⁻¹ | 8180 M⁻¹ s⁻¹ |  |  |  |
| B9 | 14.7 µg/mL |  |  | 22 nM |  |  | 29.5 nM | 0.000805 s⁻¹ | 27300 M⁻¹ s⁻¹ |  |  | Kd [12]: 24.4 nM; koff [12]: 0.000676 s⁻¹; kon [12]: 27700 M⁻¹ s⁻¹; IC50 [13]: 44.6 µg/mL; EC50 [14]: 9.96 nM; EC50 [15]: 5.99 nM |
